From patent US20170137473A1, “FLUOROGEN ACTIVATING AND SHIFTING TAG (FAST)” (PARIS SCIENCES ET LETTRE - QUARTIER LATIN, priority 2014, published 2017)

Key:
[1] = Acid-base titration and absorption/emission of free fluorogen in aqueous solution; format: physicochemical
Experimental: (§1) pH measurements were performed on a Standard pH meter PHM210 Radiometer Analytical (calibrated with aqueous buffers at pH 4 and 7 or 10) with a Crison 5208 Electrode (Barcelona, Spain). UV/Vis absorption spectra were recorded in 1 cm×1 cm quartz cuvettes (Hellma) on a diode array UV/Vis spectrophotometer (Evolution array, Thermo Scientific). Corrected fluorescence spectra upon one-photon excitation were recorded with a Photon Technology International QuantaMaster QM-1 spectrofluorimeter (PTI, Monmouth Junction, NJ) equipped with a Peltier cell holder (TLC50, Quantum Northwest, Shoreline, Wash.). The overall emission quantum yields after one-photon excitation φ were calculated from the relation: […]
(§2) where the subscript ref stands for standard samples. A(λexc) is the absorbance at the excitation wavelength λexc, D is the integrated emission spectrum, and n is the refractive index for the solvent. The uncertainty for the experimental value of φ was estimated to be ±20%. The standard fluorophore for the quantum yields measurements was Fluorescein in sodium hydroxide 0.1 M with φref=0.92. The titration experiments used for the determination of the thermodynamic constants were performed on a SpectraMax®M5e (Molecular Devices) plate-reader. The on- and off-rate constants were determined by stopped-flow experiments using a RX2000 rapid kinetic stopped flow accessory (Applied Photophysics, Leatherhead, UK). The circular dichroism spectra were recorded on a J-815 circular dichroism spectropolarimeter (Jasco). The photobleaching experiments were performed on a the Photon Technology International QuantaMaster QM-1 spectrofluorimeter (PTI, Monmouth Junction, NJ) equipped with a Peltier cell holder (TLC50, Quantum Northwest, Shoreline, Wash.).
The stability of the synthesized compounds was evaluated in aqueous solutions at neutral pH. Unstable and/or non-soluble compounds were not further studied. The photochemical and acido-basic properties of the remaining compounds were thus analyzed. Acid-base titrations were performed in aqueous solution by recording absorption and emission spectra as a function of pH.
The protonated phenol state of HBR was indeed shown to strongly absorb violet light (maximal absorption wavelength 397 nm), while the phenolate state strongly absorbs blue light (maximal absorption wavelength 449 nm) (FIG. 2). This red-shift in absorption upon ionization can be explained by the stronger electronic donation of the negatively charged phenolate. The possible fluorescence increase of HBR was evaluated by restricting the motion thereof in monitoring the influence of medium viscosity on HBR fluorescence emission. With a pKA of 8.4±0.1, HBR is mainly protonated at physiological pH, which enabled to forecast it could undergo a specific red shift upon binding-induced deprotonation within a tailored protein cavity. In aqueous solution, both acidic and basic states of HBR are weakly fluorescent (FIG. 3), emitting respectively at 470 and 545 nm with 0.02% and 0.3% fluorescence quantum yields.

wild-type PYP = biological target: T1, wild-type PYP (Halorhodospira halophila, UniProt P16113, C69G); assay: Fluorogen labeling of cells expressing wild-type PYP; format: cell-based
T1 construct: fusion partner differs by host: Aga2p (yeast surface display, pAG14); His-tag-ENLYFQG (E. coli, pET28a); expressed in transfected cells
Experimental: (§3) Flow cytometry analysis was performed on an Accuri C6 (BD Biosciences). Confocal micrographs were acquired on a Zeiss LSM 710 Laser Scanning Microscope equipped with a Plan Apochromat 63×/1.4 NA oil immersion objective. ZEN software was used to collect the data. Images were analyzed with Image J. Spinning-disk confocal micrographs were acquired on a Nikon Eclipse Ti microscope equipped with a 4×/0.15 N.A objective and a coolSnap HQ2/CDDcamera (Princeton Instrument). Metamorph premier 7.6 software (Molecular Devices) was used to collect the data.
(§4) Labeling of Y-FAST with HBR and HMBR in cells was then analyzed by flow cytometry in three different expression systems: yeast, E. coli and mammalian cells (HeLa cells). The fluorescence was compared to wild-type cells or cells expressing wild-type PYP. […] The performance and selectivity of Y-FAST labeling in mammalian cells, yeast and bacteria was furthermore confirmed by confocal microscopy (FIG. 14d and FIGS. 15 c to f and FIG. 16).

HeLa cells [2] = assay: LIVE/DEAD viability assay (calceinAM, EthD1) of HeLa cells; format: cell-based; details: incubated 5 h at 5, 10 and 20 μM; concentrations used for imaging
Experimental: Cell viability was tested by using calceinAM and EthD1 (LIVE/DEAD® viability/cytotoxicity assay kit). CalceinAM is a cell-permeant profluorophore cleaved by intracellular esterases releasing the green fluorescent polyanionic calcein in live cells. EthD1 (Ethidium homodimer 1) is a non cell-permeant nucleic acid red fluorescent stain that enters only cells with damaged membranes and undergoes a fluorescence enhancement upon binding to nucleic acids, thereby producing a bright red fluorescence in dead cells. Control experiments with HeLa cells non-incubated with dye (top left, live control) or incubated for 1 h with 1% hydrogen peroxyde (top right, dead control) are shown. Cell fluorescence was evaluated by confocal microscopy.

[3] = system: wild-type bacteria, yeast and mammalian cells; assay: Fluorescence background of fluorogen in wild-type cells (flow cytometry, confocal); format: cell-based
Experimental: as §3, §4

[4] = known in the art; cited from earlier work
[5] = Absorption and emission properties of HBR-binding PYP variants in presence of HBR; format: physicochemical; details: variant with HBR; for λabs / λem: PBS pH 7.4; for Fluorescence quantum yield: fraction
Experimental: as §1, §2
The photophysical properties of the engineered fluorescent proteins were more precisely characterized. […] This 70 nm red-shift in absorption was in accordance with HBR being bound within the PYP-variant cavity in its deprotonated state. This red-shift in absorption upon binding was also accompanied with a large fluorescence increase at 540 nm (FIG. 10 and Table 2 below).

HeLa cells [6] = assay: Brightness and photostability of fluorescent proteins expressed in mammalian (HeLa) cells; format: cell-based
Experimental: FIG. 18 is a set of graphs and images showing Y-FAST brightness and photo-resistance in mammalian cells. […] (a) Confocal micrographs of representative cells (Ex/Em 488/493-797 nm; scale bars 10 μm). Side-by-side images were recorded using the same settings for direct comparison of the fluorescence intensities. (b) Quantification of the fluorescence brightness of the different proteins (n=15-30 cells).
UnaG upon long-term observation with high power 488 nm laser excitation (light power 90 kW·cm-2, pixel dwell 1.58 μs). Plots show the fluorescence intensity as a function of the number of confocal microscope scans.
HEK293 and HeLa cells were cultured in DMEM supplemented with phenol red, Glutamax I, 10% fetal calf serum and 1% penicillin-streptomycin at 37° C. within a 5% CO2 atmosphere. For microscopy imaging, cells were seeded in μDish IBIDI (Biovalley) coated with poly-L-lysine. Cells were transiently transfected using Genejuice (Merck) according to the manufacturer's protocol.
as §3

[7] = Circular dichroism stability of Y-FAST versus temperature; format: physicochemical; details: 25-45° C. range
From the text: Note that we verified by circular dichroism, that Y-FAST was stable in the considered temperature range in order to ascertain that our two-state model was valid for the subsequent analyses.
as §2

[8] = glycerol content increased from 0 to 40% (v/v)

T1 sequence (P16113 whole entry C69G, the tested form may be a part): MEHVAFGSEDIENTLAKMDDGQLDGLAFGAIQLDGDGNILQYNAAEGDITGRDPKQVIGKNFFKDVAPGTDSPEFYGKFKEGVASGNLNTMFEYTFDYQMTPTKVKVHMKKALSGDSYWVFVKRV

Question: What does the source list for O=C1NC(=S)S/C1=C\c1ccc(O)cc1 [HBR, (Z)-5-(4-hydroxybenzylidene)-2-thioxo-1,3-thiazolidin-4-one]?
Answer: pKa ([1]; aqueous solution): 8.4 ± 0.1; emission wavelength, acidic state ([1]; free in aqueous solution): 470 nm; emission wavelength, basic state ([1]; free in aqueous solution): 545 nm; fluorescence quantum yield, acidic state ([1]; free in aqueous solution): 0.02%; fluorescence quantum yield, basic state ([1]; free in aqueous solution): 0.3%; maximal absorption wavelength, phenolate state ([1]; free in aqueous solution): 449 nm; maximal absorption wavelength, protonated phenol state ([1]; free in aqueous solution): 397 nm; maximal absorption wavelength ([1]; free, PBS pH 7.4): 397 nm; increase of the fluorescence quantum yield, acidic state [1, 8]: Six; increase of the fluorescence quantum yield, basic state [1, 8]: three-fold; binding to wild-type PYP (wild-type PYP): do not bind; toxicity for HeLa cells (HeLa cells [2]): non-toxic; fluorescence background in wild-type cells [3]: no or negligible fluorescence background

Question: Which results are given for “parahydroxybenzylidene-5-imidazolinone [p-HBI]”?
Answer: absorption wavelength, deprotonated form [4]: 475 nm; absorption wavelength, protonated form [4]: 397 nm

B1: Clone 3: best fluorescent HBR-binding PYP variant, SEQ ID NO: 3, residues 94-101 WMIPTSRG (protein)
chain: MEHVAFGSEDIENTLAKMDDGQLDGLAFGAIQLDGDGNILQYNAAEGDITGRDPKQVIGKNFFKDVAPGTDSPEFYGKFKEGVASGNLNTMFEWMIPTSRGPTKVKVHMKKALSGDSYWVFVKRV
modifications: Functional derivative of SEQ ID NO: 48 - Clone 3
Question: With B1 as the molecule, how does the Extinction coefficient [5] read?
Answer: 44,000 M^−1cm^−1

Question: What about the “Relative brightness (% of EGFP)” value [5] of the same molecule?
Answer: 12 % of EGFP

Question: And the brightness [5]?
Answer: 4,000

Question: And the λabs [5]?
Answer: 467 nm

Question: And the λem [5]?
Answer: 542 nm

Question: What about the Fluorescence quantum yield [5] of the same molecule?
Answer: 0.09

Question: What about the photostability in cells (HeLa cells [6]; 488 nm excitation) of the same molecule?
Answer: more stable than UnaG and Venus, but less than EGFP

Question: And the “fluorescence in mammalian cells” value (HeLa cells [6]; blue excitation at 488 nm, Y-FAST labeled with 5 μM HMBR)?
Answer: comparable with that of the green fluorescent proteins EGFP and UnaG, and two fold lower than that of the yellow fluorescent Venus

Question: And the photostability in cells (HeLa cells [6]; excitation at 514 nm)?
Answer: almost did not photobleach

Question: And the “fluorescence in mammalian cells” value (HeLa cells [6]; green excitation at 514 nm)?
Answer: five-fold less than Venus

Question: What about the “stability by circular dichroism” value [7] of the same molecule?
Answer: stable

B2: Clone 5: fluorescent HBR-binding PYP variant, SEQ ID NO: 5, residues 94-101 WRIPTECA (protein)
chain: MEHVAFGSEDIENTLAKMDDGQLDGLAFGAIQLDGDGNILQYNAAEGDITGRDPKQVIGKNFFKDVAPGTDSPEFYGKFKEGVASGNLNTMFEWRIPTECAPTKVKVHMKKALSGDSYWVFVKRV
modifications: Functional derivative of SEQ ID NO: 48 - Clone 5
Question: What does the source list for B2?
Answer: Extinction coefficient [5]: 47,000 M^−1cm^−1; Relative brightness (% of EGFP) [5]: 8.3 % of EGFP; brightness [5]: 2,800; λabs [5]: 468 nm; λem [5]: 542 nm; Fluorescence quantum yield [5]: 0.06

B3: Clone 4: fluorescent HBR-binding PYP variant, SEQ ID NO: 4, residues 94-101 WDIPTNPE (protein)
chain: MEHVAFGSEDIENTLAKMDDGQLDGLAFGAIQLDGDGNILQYNAAEGDITGRDPKQVIGKNFFKDVAPGTDSPEFYGKFKEGVASGNLNTMFEWDIPTNPEPTKVKVHMKKALSGDSYWVFVKRV
modifications: Functional derivative of SEQ ID NO: 48 - Clone 4
Question: For B3, which Extinction coefficient [5] is on record?
Answer: 41,000 M^−1cm^−1

Question: What about the “Relative brightness (% of EGFP)” value [5] of the same molecule?
Answer: 7.4 % of EGFP

Question: And the brightness [5]?
Answer: 2,500

Question: What about the λabs [5] of the same molecule?
Answer: 468 nm

Question: And the λem [5]?
Answer: 541 nm

Question: What about the Fluorescence quantum yield [5] of the same molecule?
Answer: 0.06

B4: Clone 2: fluorescent HBR-binding PYP variant, SEQ ID NO: 2, residues 94-101 WLIPTLPQ (protein)
chain: MEHVAFGSEDIENTLAKMDDGQLDGLAFGAIQLDGDGNILQYNAAEGDITGRDPKQVIGKNFFKDVAPGTDSPEFYGKFKEGVASGNLNTMFEWLIPTLPQPTKVKVHMKKALSGDSYWVFVKRV
modifications: Functional derivative of SEQ ID NO: 48 - Clone 2
Question: For B4, which Extinction coefficient [5] is on record?
Answer: 46,000 M^−1cm^−1

Question: And the “Relative brightness (% of EGFP)” value [5]?
Answer: 8.3 % of EGFP

Question: And the brightness [5]?
Answer: 2,800

Question: What about the λabs [5] of the same molecule?
Answer: 466 nm

Question: And the λem [5]?
Answer: 540 nm

Question: And the Fluorescence quantum yield [5]?
Answer: 0.06

B5: Clone 6: fluorescent HBR-binding PYP variant, SEQ ID NO: 6, residues 94-101 WLIPTRNA (protein)
chain: MEHVAFGSEDIENTLAKMDDGQLDGLAFGAIQLDGDGNILQYNAAEGDITGRDPKQVIGKNFFKDVAPGTDSPEFYGKFKEGVASGNLNTMFEWLIPTRNAPTKVKVHMKKALSGDSYWVFVKRV
modifications: Functional derivative of SEQ ID NO: 48 - Clone 6
Question: Which results are given for B5?
Answer: Extinction coefficient [5]: 43,000 M^−1cm^−1; Relative brightness (% of EGFP) [5]: 9.0 % of EGFP; brightness [5]: 3,000; λabs [5]: 467 nm; λem [5]: 539 nm; Fluorescence quantum yield [5]: 0.07
